# Assay results reported in the RNAGym collection of RNA variant scans (doi:10.1073/pnas.2313332121).
# B1: TPR t1 (parent)
# chain: GACCAAUCUGCCCUCAGAGCUCGAGAACAUCUUCGGAUGCAGAGGAGGCAGGCUUCGGUGGCGCGAUAGCGCCAACGUCCUCAACCUCCAAUGCAUCCCACCACAUGAUGAUGCCUGAAGAGCCUUGGUUUUUUG
# Variants of: B1
# Assay: polymerase ribozyme fitness, log enrichment relative to wild type (log ratio); higher = more active; in vitro selection for triplet polymerase activity
# Summary of the method: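 Streptavidin-bead capture of gel-excised extended constructs, followed by RT-PCR, closed a single triplicate in vitro selection round. That round began by annealing PCR-built, transcribed mutant libraries of each subunit of a heterodimeric triplet polymerase ribozyme with a biotinylated primer, the partner subunit and triplets, then incubating them frozen at −7 °C. After Illumina sequencing of inputs and outputs, genotypes needed ≥10 input reads and ≥1 read per output. Fitness is the base-2 logarithm of genotype enrichment over wild-type enrichment, using inverse-variance-weighted replicate averages.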
row,Variant,polymerase ribozyme fitness (log ratio)
1,A26U U96A U116G A121G,-3.67
2,A26U C89A,-6.44
3,A27U C28G G63U G110C,-5.36
4,A24G G48A C64G A108U A121C,-6.51
5,A26U G60U U78C,-3.09
6,A26G A27U G36A U112G U129G,-5.51
7,A27U G60A,-3.35
8,C28G G44A A46G A90C,-4.5
9,A26U A41C A46U C101U,-6.28
10,A24G A41C A46U C53A U125A,-4.79
11,A24G C49G A121C,-0.875
12,G25C A46G C70U C85G,-6.39
13,A26U G93U,-3.09
14,A27C G60A,-3.37
15,A26G G36U C82G,-4.05
16,C28U A37C G71U,-3.01
17,G25C C53A,-6.51
18,A24U U112A,-4.52
19,A26U C53U C56G A100C,-5.42
20,A27U C70A C115G U130G,-6.2
21,A26G G69U C70A G113U,-4.8
22,A26U G39C G47A C82A A118U,-4.78
23,A24G C40U G71A C114A,-5.13
24,A24U C124A,-3.28

row,Variant,polymerase ribozyme fitness (log ratio)
1,G25U C56A,-4.45
2,A27G A37G G57C U96G C115A,-5.8
3,A27C C56G U78C C80U U81A,-3.58
4,A26G C53U C101A,-3.58
5,A24U G61U A91G G120U C124U G135A,-6.15
6,C28G A41C C64U C115A,-2.93
7,A26U A66G U112G,-5.69
8,A24U G61U,-6.34
9,C28G G44C G52U C73A G110A,-2.09
10,C28A A83U,-2.16
11,A24G C53U C62U C89U G113A,-5.19
12,A24U C28G A84C G120U,-7.73
13,A27U C76U A100U G120C,-3.8
14,C28A C40G,-6.86
15,A26U U130A,-3.88
16,G25C A29G C64A C79G A90C G117U A119G,-7.04
17,A27G C49G G63U C89G G117C,-7.01
18,A26G U112A,-0.933
19,A26U U54C C72U U133A,-2.18
20,A26U G52U C94G C114A,-7.17
21,A27U C70U G122A,-3.96
22,A24G G45C,-3.46
23,A26U C56U C72U,-3.04
24,A24G G36U C56U C101U,-3.37

row,Variant,polymerase ribozyme fitness (log ratio)
1,A26U A83C,-3.24
2,A27G U54C C80U A84U,-2.61
3,A27U C72G U78A,-3.94
4,G25U G36U,-6.39
5,C28G C31U G58A G63A G117C,-6.83
6,C28A C85U,-4.56
7,A27U U32A C72U C114A,-5.96
8,C28G G48U U92G C124A,-5.41
9,A27C G51A C76G,-5.75
10,A26G G113U,-4.2
11,A24G U109C,-5.04
12,C28A G71C C89G A121U C124A,-5.37
13,A26U C53U G69C C115G G117C U133G,-6.29
14,A27G C115A,-3.25
15,A27U C88U C102A,-5.16
16,C28G A111U,-2.62
17,C28A G61C,-5.18
18,A27U U54A U112C G122A,-2.2
19,A27G G69A,-2.88
20,A26C A83C,-5.16
21,A26C C34U G36U C72A,-6.66
22,A27U C124U,-0.949
23,A26U G42C C62U C70A C88U G117U,-6.33
24,A27G C76U C89U G93A,-3.34

row,Variant,polymerase ribozyme fitness (log ratio)
1,A27C C62A A119G A121U,-2.98
2,A27G C34U,-4.85
3,A27C G39A G61A C94A U112G,-4.85
4,A27G G47A C53G,-2.77
5,A24G G120U,-1.65
6,A26G A74C C88A C115U,-2.88
7,C28G G63A C73U,-3.78
8,A26G C49A U55C C62U G63A A83C U109A G113A,-6.66
9,A26U G122A G127U U133G,-4.8
10,A27G A46U C102U C115A G120A,-7.01
11,A27G G52A C79U,-2.15
12,A26U U87G,-2.62
13,A26U C98U,-4.2
14,A26G G61C C86U,-4.37
15,A26G C28G,-2.83
16,A27C G61U,-3.27
17,C28G G107C U109G,-6.09
18,A24G G57A U78C C101A,-4.85
19,A26G C28G C104U,-2.85
20,A27U C94G C99G C104U G110U C114G,-6.8
21,A24G C72U,-1.6
22,G25A C40U G69C G93C C101U C104G C115U A118G,-7.63
23,A27C C49G,-4.07
24,A27U A46G,-2.59

row,Variant,polymerase ribozyme fitness (log ratio)
1,C28A C40G G44C G51A U112A,-6.79
2,C28A G110A,-0.364
3,A26G A105G,-4.04
4,A27U C94G,-5.02
5,A27U U87C,-2.89
6,A24U G69U C114G,-7.51
7,A26G G45A U78G C124U U129G,-4.5
8,A24G U38G C56A C80A,-5.92
9,C28G C73U A119G,-1.62
10,A26U C53U,-3.26
11,A27G G36U G42C G120A,-5.26
12,G25U A26G,-3.22
13,A24G G51U G69A G113C G120U,-6.67
14,A24G G61U C86G,-3.34
15,A27U C97A,-7.67
16,A27U G47U C56U,-4.13
17,A27G C98A,-7.76
18,A26U C62U,-3.59
19,A26U A66G,-4.28
20,A26G C80U G120U,-3.13
21,A26G C28U A121G,-0.559
22,A26G A29G A66U C72G U78A A118U,-3.89
23,A24U C72U,-5.63
24,G25A A26G A46U G63A A118C G120A,-5.5

row,Variant,polymerase ribozyme fitness (log ratio)
1,C28A G60A,-2.44
2,A26C U106A G122A,-2.97
3,A27C G44C C73G,-5.57
4,C28G C86A G120C,-2.11
5,A27U C28U,-2.59
6,A27U C28G G110C,-4
7,A26U U129G,-3.51
8,A26U C53U C56U,-3.75
9,A26G G77U,-2.79
10,C28G U106A G117C,-5.9
11,A26U C49U,-3.62
12,A27U C56G,-4.07
13,A27U A37C A91G C94U U106C,-5.4
14,G25A C56A,-5.23
15,A27U A41U C49U C72U,-5.06
16,A27G G45U A46C C49U C124A G128A,-5.34
17,A26G G39A C49U C64U,-3.32
18,G25U A121C,-4.83
19,A27G C49A,-2
20,A27U G47C G48A U78C A95G,-5.5
21,A27C G48A C86G U92A A103G A105C U109G,-7.14
22,A26C G39U C124G,-4.33
23,C28A U112C U116G U130A U132C,-5.19
24,A27G U125G,-2.34

row,Variant,polymerase ribozyme fitness (log ratio)
1,A26C G61A,-3.85
2,C28A G60A G110U G122A,-0.649
3,A26C C53U U54A G60U,-5.26
4,A27G C62G A83G C86U,-5.4
5,A26G G71A C88G G120C,-2.52
6,A26U U81A,-4.77
7,A26C G39C C104U U106A G120A,-5.96
8,A24C G63C C79G A90C C124A,-7.24
9,C28A A46U G77C A121C,-4.52
10,A26G U30C,-4.29
11,A26U A95G,-2.46
12,A27G C56G U81A C94A G122A C123A U131A,-5.75
13,A24G G57C A91G,-2.98
14,A24G G58U G61C,-1.68
15,A27G A46U G57C U81A A83C C104A G117C G122A,-7.94
16,A26G U133G,-2.68
17,A26G C34U C85U C124G,-2.34
18,A27U A66C A83U,-4.44
19,A24G G44U C64U U133G,-3.26
20,A26U C40U C64U,-3.97
21,A26U C56G,-3.48
22,C28A C72G C123U U125C,-4.42
23,A26U G69U C79G,-3.29
